According to patent US20250186597A1, “TARGETED IMMUNE ACTIVATION WITH IL-18 IMMUNOCYTOKINES” (BRIGHT PEAK THERAPEUTICS AG, priority 2023, published 2025):

T1: human IL-18BP (Homo sapiens, UniProt O95998)
T1 construct: His
T1 sequence (O95998 31-194): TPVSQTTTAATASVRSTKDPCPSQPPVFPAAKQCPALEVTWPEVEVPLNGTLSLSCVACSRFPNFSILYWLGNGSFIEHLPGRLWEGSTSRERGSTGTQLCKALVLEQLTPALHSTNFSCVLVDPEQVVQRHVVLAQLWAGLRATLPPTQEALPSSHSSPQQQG


Experiments:
[1] = tested on: NK-92 cells; assay: IFNγ induction cellular assay in NK-92 cells (Example 4, used in Example 22C); type: cell-based, human; settings: IFNg stimulation in NK92 cells
Description: The ability of immunocytokines and IL-18 polypeptides provided herein are assessed for ability to induce IFN[…] in a cellular assay according to the protocol below.
The NK cell line NK-92 derived from a patient with lymphoma (ATCC® CRL-2407™) is cultured in aMEM medium supplemented with 20% FCS, Glutamax, 25 µM B-mercaptoethanol, and 100 IU/mL of recombinant human IL-2.
On the day of experiment, cells are harvested and washed with aMEM medium without IL-2 and containing 1 ng/mL of recombinant human IL-12. After counting, cells are seeded at 100,000 cells/well in a 384 well titer plate and incubated at 37° C./5% CO2. Sixteen 4-fold serial dilutions of IL-18 analytes are prepared in aMEM medium, and 1 ng/mL of IL-12 were added to the NK-92 cells. Final IL-18 analyte concentrations range from 56 nM to 5×10^−5 pM.
After incubating the cells for 16-20 hr at 37° C./5% CO2, 5 μL of supernatant is carefully transferred to a 384 microwell OptiPlate. IFNγ levels are measured using a human IFNγ AlphaLISA Assay Kit. Briefly, 10 μL of 2.5× AlphaLISA Anti-IFNγ acceptor beads and biotinylated antibody anti-IFNγ mix are added to the 5 μL of NK-92 supernatants. The mixtures are incubated for 1 hr at room temperature with shaking. Under subdued light, 2.5 μL of 2× streptavidin (SA) donor beads are pipetted into each well, and the wells are incubated for 30 min at room temperature with shaking. AlphaLISA signals are then measured on an EnSpire™ plate reader using 680 nm and 615 nm as excitation and emission wavelengths, respectively. Half maximal effective concentrations (EC50) are calculated based on a variable slope and four parameter analysis using GraphPad PRISM software.
(§1) The experiments described in Example 4 for determination of IFNg stimulation in NK92 cells (and inhibition by IL-18 BP) were performed substantially as described on IL-18 polypeptides in order to assess their activities and their suitability for incorporation into immunocytokine compositions. It is expected that the IL-18 polypeptides provided below would behave analagously to C086 (SEQ ID NO: 30) when incorporated into an immunocytokine composition as those otherwise provided herein.

[2] = target: T1, human IL-18BP; assay: IL-18BP binding alphaLISA assay (Example 4, used in Example 22B); settings: IL-18BP AlphaLISA
Description: A human IL-18BP AlphaLISA Assay Kit is used to determine the binding affinity of each immunocytokine and IL-18 variant for IL-18BP, which detected the presence of free form IL-18BP.
Sixteen three-fold serial dilutions of IL-18 analytes are prepared in aMEM medium supplemented with 20% FCS, Glutamax, and 25 µM β-mercaptoethanol in the presence of 5 ng/mL of His-tagged human IL-18BP. Final IL-18 analytes concentration range from 2778 nM to […].
After 1 hr incubation at room temperature, free IL-18BP levels are measured using a […]. In a 384 well OPTIplate, 5 μL of 5× Anti-IL-18BP acceptor beads are added to 7.5 μL of an IL-18/IL-18BP mix. After 30 min incubation at room temperature with shaking, 5 μL of biotinylated Anti-IL-18BP antibodies are added to each well. The plate is incubated further for 1 hr at room temperature. Under subdued light, 12.5 μL of 2× streptavidin (SA) donor beads are pipetted into each well, and the wells are incubated with shaking for an additional 30 min at room temperature. The AlphaLisa signal is then measured on an Enspire plate reader with 680 and 615 nm as excitation and emission wavelengths, respectively. The dissociation constant (KD) is calculated based on a variable slope, four parameter analysis using GraphPad PRISM software.
An IL-18 binding protein AiphaLISA experiment substantially as described in Example 4 was performed on IL-18 polypeptide which can be incorporated into immunocytokine compositions as provided herein to assess ability to bind to IL-181BP. It is expected that the IL-18 polypeptides provided below would behave analogously to C086 (SEQ ID NO: 30) when incorporated into an immunocytokine composition as those otherwise provided herein.

[3] = tested on: NK-92 cells; assay: IL-18 binding protein inhibition cellular assay in NK-92 cells (Example 4, used in Example 22C); type: cell-based, human; settings: inhibition by IL-18BP of IFNg stimulation in NK92 cells
Description: The NK cell line NK-92 derived from a patient with lymphoma (ATCC® CRL-2407™) is cultured in aMEM medium supplemented with 20% FCS-Glutamax, 25 µM B-mercaptoethanol, and 100 IU/mL of recombinant human IL-2.
On the day of experiment, cells are harvested and washed with aMEM medium without IL-2 and containing 1 ng/mL of recombinant human IL-12. After counting, the cells are seeded at 100,000 cells/well in a 384 well titer plate and incubated at 37° C./5% CO2. Sixteen 2-fold serial dilutions of Fc-fused human IL-18 binding protein isoform a (IL-18BPa) are prepared in aMEM medium. 1 ng/mL of IL-12 containing 2 nM of each IL-18 polypeptide variant is added to the NK-92 cells. The final IL-18 analyte concentration is 1 nM, and the final IL-18BPa concentration ranged from 566 nM to […].
After incubating the cells for 16-20 hr at 37° C./5% CO2, 5 μL of the supernatant is carefully transferred to a 384 microwell OptiPlate. IFNγ levels are measured using a human IFNγ AlphaLISA Assay Kit. Briefly, 10 μL of 2.5× AlphaLISA anti-IFNγ acceptor beads and biotinylated antibody anti-IFNγ mix are added to 5 μL of NK-92 supernatants. The mixtures are incubated for 1 hr at room temperature with shaking. Under subdued light, 2.5 μL of 2×SA donor beads are pipetted in each well and incubated for 30 min at room temperature with shaking. AlphaLISA signals are then measured on an EnSpire™ plate reader using 680 nm and 615 nm as excitation and emission wavelengths, respectively. Half maximal inhibitory concentrations (IC50) are calculated based on a variable slope and four parameter analysis using GraphPad PRISM software.
as §1

Molecule | EC50 [1] | Kd [2] | IC50 [3]
42 (protein) YFGKLKSKLSVIRNLNDQVLFIDQGNRPLFEDMTDSDCRDNAPRTIFIISMYADAQPRGMAVAISVKCEKISTLSCENKIISFKEMNPPDNIKDTKSDIIFFQRSVPGHDNKMQFESSSYEGYFLACEKERDLFKLILKKEDELGDRSIMFTVQNED | 0.144 nM | 822 nM | 1060 nM
C145: IL-18 polypeptide: V11I, C38A, K53A, S55A, C76A, C127A (protein) YFGKLESKLSIIRNLNDQVLFIDQGNRPLFEDMTDSDARDNAPRTIFIISMYADAQPRGMAVTISVKCEKISTLSAENKIISFKEMNPPDNIKDTKSDIIFFQRSVPGHDNKMQFESSSYEGYFLAAEKERDLFKLILKKEDELGDRSIMFTVQNED | 0.087 nM | 9.74 nM | 10.2 nM
6 (protein) YFGKLKSKLSIIRNLNDQVLFIDQGNRPLFEDMTDSDARDNAPRTIFIISMYADSQPRGMAVAISVKAEKISTLSAENKIISFKEMNPPDNIKDTKSCIIFFQRSVPGHDNKMQFESSSYEGYFLAAEKERDLFKLILKKEDELGDRSIMFTVQNED | 1.37 nM | – | 5.85 nM
47 (protein) YFGKLESKLSVIRNLNDQVLFIDQGNRPLFEDMTDSDSRDNAPRTIFIISMYKDSQPRGMAVTISVKSEKISTLSSENKIISFKEMNPPDNIKDTKSDIIFFQRSVPGHDNKMQFESSSYEGYFLASEKERDLFKLILKKEDELGDRSIMFTVQNED | 0.115 nM | 0.03 nM | 0.444 nM
46 (protein) YFGKLKSKLSVIRNLNDQVLFIDQGNRPLFEDMTDSDCRDNAPRTIFIISGYADAQPRGMAVTISVKCEKISTLSCENKIISFKEMNPPDNIKDTKSDIIFFQRSVPGHDNKMQFESSSYEGYFLACEKERDLFKLILKKEDELGDRSIMFTVQNED | 7.4 nM | > 1000 nM | 0.189 nM
55 (protein) YFGKLESKLSVIRNLNDQVLFIDQGNRPLFEDMTDSDSRDNAPRTIFIISMYADSQPRGMAVAISVKSECISTLSSENKIISFKEMNPPDNIKDTKSDIIFFQRSVPGHDNKMQFESSSYEGYFLASEKERDLFKLILKKEDELGDRSIMFTVQNED | 17.2 nM | 913 nM | > 1000 nM
C143: IL-18 polypeptide: V11I, C38A, K53A, C76A, C127A (protein) YFGKLESKLSIIRNLNDQVLFIDQGNRPLFEDMTDSDARDNAPRTIFIISMYADSQPRGMAVTISVKCEKISTLSAENKIISFKEMNPPDNIKDTKSDIIFFQRSVPGHDNKMQFESSSYEGYFLAAEKERDLFKLILKKEDELGDRSIMFTVQNED | 0.138 nM | 8.86 nM | 1.62 nM
50 (protein) YFGKLKSKLSVIRNLNDQVLFIDQGNRPLFEDMTDSDCRDNAPRTIFIISMYADSQPRGMAVAISVKCEKISTLSCENKIISFKEMNPPDNIKDTKSDIIFFQRSVPGHDNKMQFESSSYEGYFLACEKERDLFKLILKKEDELGDRSIMFTVQNED | 0.0268 nM | 340 nM | > 1000 nM
57 (protein) YFGKLKSKLSVIRNLNDQVLFIDQGNRPLFEDMTDSDSRDNAPRTIFIISMYADSQPRGMAVTISVKCEKISTLSCENKIISFKEMNPPDNIKDTKSDIIFFQRSVPGHDNKMQFESSSYEGYFLACEKERDLFKLILKKEDELGDRSIMFTVQNED | 0.045 nM | 50.2 nM | 146 nM
C144: IL-18 polypeptide: V11I, C38A, K53A, T63A, C76A, C127A (protein) YFGKLESKLSIIRNLNDQVLFIDQGNRPLFEDMTDSDARDNAPRTIFIISMYADSQPRGMAVAISVKCEKISTLSAENKIISFKEMNPPDNIKDTKSDIIFFQRSVPGHDNKMQFESSSYEGYFLAAEKERDLFKLILKKEDELGDRSIMFTVQNED | 0.012 nM | 0.66 nM | 7.52 nM
48 (protein) YFGKLESKLSVIRNLNDQVLFIDQGNRPLFEDMTDSDSRDNAPRTIFIISMYKDSQPRGMAVTISVKSECISTLSSENKIISFKEMNPPDNIKDTKSDIIFFQRSVPGHDNKMQFESSSYEGYFLASEKERDLFKLILKKEDELGDRSIMFTVQNED | 0.488 nM | 0.21 nM | 0.114 nM
54 (protein) YFGKLKSKLSVIRNLNDQVLFIDQGNRPLFEDMTDSDSRDNAPRTIFIISMYADSQPRGMAVTISVKSECISTLSSENKIISFKEMNPPDNIKDTKSDIIFFQRSVPGHDNKMQFESSSYEGYFLASEKERDLFKLILKKEDELGDRSIMFTVQNED | 0.962 nM | 446 nM | 23.5 nM
5 (protein) YFGKLKSKLSIIRNLNDQVLFIDQGNRPLFEDMTDSDARDNAPRTIFIISMYADSQPRGMAVAISVKAEKISTLSAENKIISFKECNPPDNIKDTKSDIIFFQRSVPGHDNKMQFESSSYEGYFLAAEKERDLFKLILKKEDELGDRSIMFTVQNED | 0.075 nM | – | 62.4 nM
